Common to all, as to assay: SPOT array
In assay [1] the target is T1, Rvs167 SH3 (RV167_YEAST), P39743.
T1 chain: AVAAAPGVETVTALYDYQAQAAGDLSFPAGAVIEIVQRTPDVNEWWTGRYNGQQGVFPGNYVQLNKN

In assay [2] the target is T2, Boi1 SH3 (BOI1_YEAST), P38041.
T2 chain: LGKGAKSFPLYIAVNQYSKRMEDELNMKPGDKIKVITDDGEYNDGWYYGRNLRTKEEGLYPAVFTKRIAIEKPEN

Assay [3] deals with T3, Yfr024 SH3 (LSB3_YEAST), P43603.
T3 chain: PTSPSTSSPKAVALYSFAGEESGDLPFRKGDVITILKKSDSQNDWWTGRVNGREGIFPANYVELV

For assay [4], the target named is T4, Boi2 SH3 (BOI2_YEAST), P39969.
T4 chain: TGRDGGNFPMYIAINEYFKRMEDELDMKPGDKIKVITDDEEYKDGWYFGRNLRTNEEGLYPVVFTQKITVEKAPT

In assay [5] the target is T5, Yhr016c SH3 (YSC84_YEAST), P32793.
T5 chain: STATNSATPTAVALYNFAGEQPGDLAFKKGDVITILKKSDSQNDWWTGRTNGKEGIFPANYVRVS

B1: YBL067C 285-298 (peptide)
chain: PNEPGAPSRLSFEN
On to B1, for which the normalised SPOT signal, Boehringer light units (BLU); mean over the file's lines of this peptide amounted to 52.4 in assay [1]; 104 in assay [2]; 34.7 in assay [3]; 71.5 in assay [4]; 258 in assay [5].

B2: YPR107C 47-60 (peptide)
chain: PRGPLSPKKHVLPI
With B2, the normalised SPOT signal, Boehringer light units (BLU); mean over the file's lines of this peptide in assay [1] turned out to be 29.4; in assay [2], 110; in assay [3] it was 289; in assay [4], 1.8; in assay [5], 204.

B3: YMR089C 156-169 (peptide)
chain: PPPPPPPPKPPLND
On to B3, for which the normalised SPOT signal, Boehringer light units (BLU); mean over the file's lines of this peptide was found to be 36.6 in assay [1]; 60 in assay [2]; 1030 in assay [3]; 58 in assay [4]; 100 in assay [5].

B4: YER132C 943-956 (peptide)
chain: PPVPKAPSRRSSSL
Consider B4, for which the normalised SPOT signal, Boehringer light units (BLU); mean over the file's lines of this peptide in assay [1] amounted to 1660; in assay [2] it was 1230; in assay [3], 29400; in assay [4], 753; in assay [5], 6150.

B5: YPL084W 769-782 (peptide)
chain: PQGPGIPPRTYEAS
For B5, the normalised SPOT signal, Boehringer light units (BLU); mean over the file's lines of this peptide in assay [1] was 332; in assay [2], 87.2; in assay [3], 2650; in assay [4], 59.6; in assay [5], 1710.

B6: YBR060C 169-182 (peptide)
chain: PPEPATPSKKSLTT
As for B6, the normalised SPOT signal, Boehringer light units (BLU); mean over the file's lines of this peptide turned out to be 23.8 in assay [1]; 46.1 in assay [2]; 41.3 in assay [3]; 26.2 in assay [4]; 66.6 in assay [5].

B7: YNL068C 402-415 (peptide)
chain: PRRPNEPGKGMKWR
Consider B7, for which the normalised SPOT signal, Boehringer light units (BLU); mean over the file's lines of this peptide in assay [1] turned out to be 18.5; in assay [2], 91; in assay [3], 218; in assay [4] it was 49; in assay [5] it was 181.

B8: YGL197W 345-358 (peptide)
chain: PSNPALPKKLLNVP
Take B8: the normalised SPOT signal, Boehringer light units (BLU); mean over the file's lines of this peptide stood at 27.9 in assay [1]; 28.7 in assay [2]; 1030 in assay [3]; 78.6 in assay [4]; 87.4 in assay [5].

B9: YKL101W 622-635 (peptide)
chain: PQLPKSPSRYSLSR
For the molecule B9, the normalised SPOT signal, Boehringer light units (BLU); mean over the file's lines of this peptide was found to be 391 in assay [1]; 14300 in assay [2]; 1610 in assay [3]; 775 in assay [4]; 391 in assay [5].

B10: YNL152W 329-342 (peptide)
chain: PPLPPIPTRDDMSN
For B10, the normalised SPOT signal, Boehringer light units (BLU); mean over the file's lines of this peptide was determined as 124 in assay [1]; 72.7 in assay [2]; 2050 in assay [3]; 37.5 in assay [4]; 545 in assay [5].

B11: YGL087C 66-79 (peptide)
chain: PNYPDSPPKVTFIS
For the molecule B11, the normalised SPOT signal, Boehringer light units (BLU); mean over the file's lines of this peptide in assay [1] was 12.5; in assay [2], 68.6; in assay [3], 87.1; in assay [4], 76.3; in assay [5], 260.

B12: YNL271C 1244-1257 (peptide)
chain: PPPPPVPAKLFGES
For the molecule B12, the normalised SPOT signal, Boehringer light units (BLU); mean over the file's lines of this peptide in assay [1] worked out at 40.5; in assay [2], 82.1; in assay [3] it was 2930; in assay [4] it was 37.8; in assay [5], 62.5.

B13: YDL146W 477-490 (peptide)
chain: PPPPPPPSRKSGTP
As to B13, the normalised SPOT signal, Boehringer light units (BLU); mean over the file's lines of this peptide was found to be 1520 in assay [1]; 563 in assay [2]; 6880 in assay [3]; 50.2 in assay [4]; 2480 in assay [5].

B14: YER164W 1337-1350 (peptide)
chain: PNSPTPPLKSKVSR
For B14, the normalised SPOT signal, Boehringer light units (BLU); mean over the file's lines of this peptide in assay [1] stood at 25; in assay [2], 170; in assay [3] it was 866; in assay [4], 40.1; in assay [5], 164.

B15: YNL315C 113-126 (peptide)
chain: PSAPKVPFKTLDSF
Take B15: the normalised SPOT signal, Boehringer light units (BLU); mean over the file's lines of this peptide in assay [1] turned out to be 37; in assay [2], 75.4; in assay [3], 284; in assay [4], 43; in assay [5], 176.

The values are drawn from PMC314469, “Protein Interaction Networks by Proteome Peptide Scanning” (PLoS Biology, 2004).
